Reference: paper PMC8072984, “Engineering of Saposin C Protein Chimeras for Enhanced Cytotoxicity and Optimized Liposome Binding Capability” (Pharmaceutics, 2021)

Target: T1, Human Bcl-xL-ΔTM (native amino acid sequence without the transmembrane domain) (human)
T1 construct: ~24.5 kDa; Unlabeled in the NMR titration; source: cloned into pET21a; not shown: His6, N-terminal, kept
Experiment: NMR titration; [1H-15N]-SOFAST-HMQC at 298 K, 600 MHz; 15N-labelled chimera at 100 µM mixed with unlabeled Bcl-xL-ΔTM (stock 900 µM, pH 6.8) at chimera:Bcl-xL molar ratios 1:0, 1:0.5, 1:1, 1:2; 10% D2O; slow exchange, the upper limit of KD estimated from the chemical shift difference assuming diffusion-controlled kon
Settings: both partners purified

B1: sapC-PUMA chimera (saposin C linked to the BH3 domain of PUMA) (other)
chain: SDVYCEVCEFLVKEVTKLIDNNKTEKEILDAFDKMCSKLPKSLSEECQEVVDTYGSSILSILLEEVSPELVCSMLHLCSGGGGEEQWAREIGAQLRRMADDLNAQYER
modifications: Three disulfide bonds in the sapC part. Chimera numbering of sapC + 307 = P07602 numbering (S4-G83 = 311-390). Vector residues 1-3 (letters only in Figure 2) and the C-terminal thrombin-site remnant …
  Kd: < 49 nM
  koff: < 49 s⁻¹
